14 sequences from the supplement of paper PMC10201428 can be followed below.

± gives the standard deviation of the averaged measurements.

The test system of the first series is VchCAST RNA-guided transposition machinery (E. coli BL21(DE3) host, lacZ target). The experiment in a line: relative integration efficiency (T-RL orientation) vs wild-type transposon end (log2 (normalized fold change)); transposon end mutated: right end (5 bp flank + 75 bp right end); higher = more efficient transposition. A digest of the protocol:
(§1)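 Barcode abundances in input plasmids and in genomic integration junctions were obtained by PCR amplification and Illumina sequencing. These came from E. coli BL21(DE3) co-transformed with a T7-driven effector plasmid and a pUC57 donor carrying 1549 left-end or 1849 right-end transposon variants, then plated with 0.1 mM IPTG at 37°C for 18 h. Relative integration efficiency is the output/input fold change, normalised to reference barcodes and log-transformed.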
With “ACATTTGTTGATACAACCATAAGTTGATATTTTCAACCATATATTGATATCTCTCACAACCATAAAATGATAATTACTCTGATCATAGTCAGACCAACATTGCTACGACCCGTATTCGCACCGACAC”, the “relative integration efficiency (log2)” value is -0.54 ± 0.12.
Take “ACATTTGTTGATACAACCATAAAATGATCATTACACCCATAAATTGATAATTATCCCACCCCATTTAACTATAACGCTCTGATCATAGTCAGACCAACATTGCTACGACCCGTATTCGCACCGACAC”: the “relative integration efficiency (log2)” value was -1.84 ± 0.31.
The same measure, in the same setting: to “ACATTTGTTGATACAACCATAAGTTGATATTTTCAACCATAAAATGATAATTATCACACCCATAAATTGATATTGCCTCTGATCATAGTCAGACCAACATTGCTACGACCCGTATTCGCACCGACAC” belongs 0.367 ± 0.094.
The same measure, in the same setting: the value for “ACATTTGTTGATACAACCATAAAATGATACTTACACCCATAAATTGATACTTATCACACCCATAAATTGATAGTGCCTCTGATCATAGTCAGACCAACATTGCTACGACCCGTATTCGCACCGACAC” was -0.987 ± 0.027; that for “ACATTTGTTGATACAACCATAAAATCATCATTACACCCATAAATTGATAATTATCCCACCCAATTTAACTATAACGCTCTGATCATAGTCAGACCAACATTGCTACGACCCGTATTCGCACCGACAC” was -3.07 ± 0.5; that for “ACATTTGTTGATACAACCATAAAATGATAATTACTCTGATCATAGTCAGACACCCATAAATTGATAATTATCACACCCATAAATTGATATTGCCCAACATTGCTACGACCCGTATTCGCACCGACAC” was -3.73 ± 0.17.
The same measure, in the same setting: to “ACATTTGTTGATACAACCATAAAATGATAATTAACAAACGCCCGGTCGCCGGCTCAACAAACGCCCGGTCGCGGTACTCTGATCATAGTCAGACCAACATTGCTACGACCCGTATTCGCACCGACAC” belongs -1.98 ± 0.26.
Turning to “ACATTTGTTGATACAACCATAAAATGATAATTACACCCATAAATTGATAATTATCACACCCATAAATTGATATTGCGACTGATCATAGTCAGACCAACATTGCTACGACCCGTATTCGCACCGACAC”, the “relative integration efficiency (log2)” value is -0.0819 ± 0.0067.
Still for that read-out and setting: the value for “ACATTTGTTGATACAACCATAAAATGATAATTACTCTGACACCCATAAATTGATAATTATCAGTGGGTATTTAACTATAACGTCATAGTCAGACCAACATTGCTACGACCCGTATTCGCACCGACAC” was -2.06 ± 0.27; that for “ACATTTGTTGATACAACCATAAAATGATAATTACACCCCTACATTGATAATTATCACACCCAATTTAACTATAACGCTCTGATCATAGTCAGACCAACATTGCTACGACCCGTATTCGCACCGACAC” was -2.87 ± 0.33; that for “ACATAAGTTGATACAACCATAAAATGATAATTACACCCATAAATTGATAATTATCACACCCATAAATTGATATTGCCTCTGATCATAGTCAGACCAACATTGCTACGACCCGTATTCGCACCGACAC” was -6.621 ± 0.045.
On to “ACATTTGTTGATACAACCATAAAATGATAATTACACAACGAAATTGATAATTATCACACCCATAAATTGATATTGCCTCTGATCATAGTCAGACCAACATTGCTACGACCCGTATTCGCACCGACAC”, for which the “relative integration efficiency (log2)” value was -3.5 ± 0.2.
For “ACATTTGTTGATACAACCAAAAAATGATAATTACACCCATAAATTGATAATAATGACACCGAATTTAACTATAACGCTCTGATCATAGTCAGACCAACATTGCTACGACCCGTATTCGCACCGACAC”, the “relative integration efficiency (log2)” value was -1.3 ± 0.18.
As for “ACATTTGTTGATACAACCATAAAATGATAATTAATAATTATTTATAATCAGCAACTTAACCACACACCCATAAATTGATAATTATCAACAAACGCCCGGTCGCGGTACTCTGATCATAGTCAGACCA”, the “relative integration efficiency (log2)” value was -2.65 ± 0.4.

A further series shares this test system. The experiment in a line: relative integration efficiency (T-LR orientation) vs wild-type transposon end (log2 (normalized fold change)); transposon end mutated: right end (5 bp flank + 75 bp right end); higher = more efficient transposition. A digest of the protocol: as §1
As to “ACATTTGTTGATACAACCATAAGTTGATATTTTCAACCATATATTGATATCTCTCACAACCATAAAATGATAATTACTCTGATCATAGTCAGACCAACATTGCTACGACCCGTATTCGCACCGACAC”, the “relative integration efficiency (log2)” value was -0.461 ± 0.17.
The same measure, in the same setting: to “ACATTTGTTGATACAACCATAAAATGATCATTACACCCATAAATTGATAATTATCCCACCCCATTTAACTATAACGCTCTGATCATAGTCAGACCAACATTGCTACGACCCGTATTCGCACCGACAC” belongs 1.87 ± 0.062; to “ACATTTGTTGATACAACCATAAGTTGATATTTTCAACCATAAAATGATAATTATCACACCCATAAATTGATATTGCCTCTGATCATAGTCAGACCAACATTGCTACGACCCGTATTCGCACCGACAC”, 0.105 ± 0.58.
Turning to “ACATTTGTTGATACAACCATAAAATGATACTTACACCCATAAATTGATACTTATCACACCCATAAATTGATAGTGCCTCTGATCATAGTCAGACCAACATTGCTACGACCCGTATTCGCACCGACAC”, the “relative integration efficiency (log2)” value was -0.0216 ± 0.18.
Still for that read-out and setting: to “ACATTTGTTGATACAACCATAAAATCATCATTACACCCATAAATTGATAATTATCCCACCCAATTTAACTATAACGCTCTGATCATAGTCAGACCAACATTGCTACGACCCGTATTCGCACCGACAC” belongs 0.728 ± 0.058.
In the case of “ACATTTGTTGATACAACCATAAAATGATAATTACTCTGATCATAGTCAGACACCCATAAATTGATAATTATCACACCCATAAATTGATATTGCCCAACATTGCTACGACCCGTATTCGCACCGACAC”, the “relative integration efficiency (log2)” value was -0.838 ± 0.091.
On the same count and under the same terms, to “ACATTTGTTGATACAACCATAAAATGATAATTAACAAACGCCCGGTCGCCGGCTCAACAAACGCCCGGTCGCGGTACTCTGATCATAGTCAGACCAACATTGCTACGACCCGTATTCGCACCGACAC” belongs 1.12 ± 0.068; to “ACATTTGTTGATACAACCATAAAATGATAATTACACCCATAAATTGATAATTATCACACCCATAAATTGATATTGCGACTGATCATAGTCAGACCAACATTGCTACGACCCGTATTCGCACCGACAC”, -0.0636 ± 0.17; to “ACATTTGTTGATACAACCATAAAATGATAATTACTCTGACACCCATAAATTGATAATTATCAGTGGGTATTTAACTATAACGTCATAGTCAGACCAACATTGCTACGACCCGTATTCGCACCGACAC”, 1.33 ± 0.1.
The same measure, in the same setting: to “ACATTTGTTGATACAACCATAAAATGATAATTACACCCCTACATTGATAATTATCACACCCAATTTAACTATAACGCTCTGATCATAGTCAGACCAACATTGCTACGACCCGTATTCGCACCGACAC” belongs 0.306 ± 0.013; to “ACATAAGTTGATACAACCATAAAATGATAATTACACCCATAAATTGATAATTATCACACCCATAAATTGATATTGCCTCTGATCATAGTCAGACCAACATTGCTACGACCCGTATTCGCACCGACAC”, -4.25 ± 0.29.
Same read-out and setting: to “ACATTTGTTGATACAACCATAAAATGATAATTACACAACGAAATTGATAATTATCACACCCATAAATTGATATTGCCTCTGATCATAGTCAGACCAACATTGCTACGACCCGTATTCGCACCGACAC” belongs -3.53 ± 0.42; to “ACATTTGTTGATACAACCAAAAAATGATAATTACACCCATAAATTGATAATAATGACACCGAATTTAACTATAACGCTCTGATCATAGTCAGACCAACATTGCTACGACCCGTATTCGCACCGACAC”, 2.17 ± 0.081.
For the sequence “ACATTTGTTGATACAACCATAAAATGATAATTAATAATTATTTATAATCAGCAACTTAACCACACACCCATAAATTGATAATTATCAACAAACGCCCGGTCGCGGTACTCTGATCATAGTCAGACCA”, the “relative integration efficiency (log2)” value was 0.76 ± 0.68.
